Laboratory results reported in US20250074974A1 (KANAPH THERAPEUTICS, published 2025).

B1: PRO241 (bispecific antibody, IgG1)
chain: SDTGRPFVEMYSEIPEIIHMTEGRELVIPCRVTSPNITVTLKKFPLDTLIPDGKRIIWDSRKGFIISNATYKEIGLLTCEATVNGHLYKTNYLTHRQTNTIIDVVLSPSHGIELSVGEKLVLNCTARTELNVGIDFNWEYPSSKHQHKKLVNRDLKTQSGSEMKKFLSTLTIDGVTRSDQGLYTCAASSGLMTKKNSTFVRVHEKGGGGSDKTHTCPPCPAPEAAGGPSVFLFPPKPKDTLMISRTPEVTCVVVAVSHEDPEVKFNWYVDGVEVHNAKTKPREEQYGSTYRVVSVLTVLHQDWLNGKEYKCKVSNKALPAPIEKTISKAKGQPREPQVYTLPPSREEMTKNQVSLTCLVKGFYPSDIAVEWESNGQPENNYKTTPPVLDSDGSFFLYSKLTVDKSRWQQGNVFSCSVMHEALHNHYTQKSLSLSPGGGGGSGGGGSGGGGSEVQLVQSGAEVKKPGASVKVSCKASGYTFTGYYINWVRQAPGQGLEWMGIISPNQGTTGYAQKFQGRVTMTRDTSISTAYMELSSLRSEDTAVYYCARGNYDHLDYWGQGTLVTVSSGGGGSGGGGSGGGGSGGGGSDIQMTQSPSSLSASVGDRVTITCRASQGISNYLNWYQQKPGKAPKLLIYDASTLQSGVPSRFSGSGSGTDFTLTISSLQPEDFATYYCQQDWHTLPVTFGQGTKVEIK
notes: Purified as a fusion protein dimer
B2: PRO236 (bispecific antibody, human IgG1, kappa, L234A L235A, N297G)
heavy: EVQLVESGGGLVQPGGSLRLSCAASGFTFSSYWMTWVRQAPGKGLEWVSSIKIKPDGYAASVKGRFTISRDNSKNTLYLQMNSLRAEDTAVYYCARLFYQYFARMDYWGQGTLVTVSSASTKGPSVFPLAPSSKSTSGGTAALGCLVKDYFPEPVTVSWNSGALTSGVHTFPAVLQSSGLYSLSSVVTVPSSSLGTQTYICNVNHKPSNTKVDKRVEPKSCDKTHTCPPCPAPEAAGGPSVFLFPPKPKDTLMISRTPEVTCVVVAVSHEDPEVKFNWYVDGVEVHNAKTKPREEQYGSTYRVVSVLTVLHQDWLNGKEYKCKVSNKALPAPIEKTISKAKGQPREPQVYTLPPSREEMTKNQVSLTCLVKGFYPSDIAVEWESNGQPENNYKTTPPVLDSDGSFFLYSKLTVDKSRWQQGNVFSCSVMHEALHNHYTQKSLSLSPGGGGGSGGGGSSDTGRPFVEMYSEIPEIIHMTEGRELVIPCRVTSPNITVTLKKFPLDTLIPDGKRIIWDSRKGFIISNATYKEIGLLTCEATVNGHLYKTNYLTHRQTNTIIDVVLSPSHGIELSVGEKLVLNCTARTELNVGIDFNWEYPSSKHQHKKLVNRDLKTQSGSEMKKFLSTLTIDGVTRSDQGLYTCAASSGLMTKKNSTFVRVHEK
light: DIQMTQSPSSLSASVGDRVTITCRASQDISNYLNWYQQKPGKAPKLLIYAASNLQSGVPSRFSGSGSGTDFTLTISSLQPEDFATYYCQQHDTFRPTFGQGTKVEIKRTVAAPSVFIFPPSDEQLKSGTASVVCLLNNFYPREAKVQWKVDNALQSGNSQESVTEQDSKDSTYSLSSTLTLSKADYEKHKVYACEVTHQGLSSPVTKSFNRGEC
notes: as for B1
B3: PRO237 (bispecific antibody, human IgG1, kappa, L234A L235A, N297G)
heavy: EVQLVQSGAEVKKPGASVKVSCKASGYTFTGYYINWVRQAPGQGLEWMGIISPNQGTTGYAQKFQGRVTMTRDTSISTAYMELSSLRSEDTAVYYCARGNYDHLDYWGQGTLVTVSSASTKGPSVFPLAPSSKSTSGGTAALGCLVKDYFPEPVTVSWNSGALTSGVHTFPAVIQSSGLYSLSSVVTVPSSSLGTQTYICNVNHKPSNTKVDKRVEPKSCDKTHTCPPCPAPEAAGGPSVFLFPPKPKDTLMISRTPEVTCVVVAVSHEDPEVKFNWYVDGVEVHNAKTKPREEQYGSTYRVVSVLTVLHQDWLNGKEYKCKVSNKALPAPIEKTISKAKGQPREPQVYTLPPSREEMTKNQVSLTCLVKGFYPSDIAVEWESNGQPENNYKTTPPVLDSDGSFFLYSKLTVDKSRWQQGNVFSCSVMHEALHNHYTQKSLSLSPGGGGGSGGGGSSDTGRPFVEMYSEIPEIIHMTEGRELVIPCRVTSPNITVTLKKFPLDTLIPDGKRIIWDSRKGFIISNATYKEIGLLTCEATVNGHLYKTNYLTHRQTNTIIDVVLSPSHGIELSVGEKLVLNCTARTELNVGIDFNWEYPSSKHQHKKLVNRDLKTQSGSEMKKFLSTLTIDGVTRSDQGLYTCAASSGLMTKKNSTFVRVHEK
light: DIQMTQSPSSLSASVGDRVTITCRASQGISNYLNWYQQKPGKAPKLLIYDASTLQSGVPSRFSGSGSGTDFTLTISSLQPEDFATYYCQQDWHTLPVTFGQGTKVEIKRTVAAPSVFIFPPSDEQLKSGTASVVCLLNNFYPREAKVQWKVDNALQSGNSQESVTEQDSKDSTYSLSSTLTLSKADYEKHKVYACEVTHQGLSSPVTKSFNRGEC
notes: as for B1
B4: PRO238 (bispecific antibody)
heavy: EVQLVESGGGLVQPGGSLRLSCAASGFSFTSSSVSWVRQAPGKGLEWVGLIYPYNGFNYYADSVKGRFTISADTSKNTAYLQMNSLRAEDTAVYYCARNALYGSGGYYAMDYWGQGTLVTVSSASTKGPSVFPLAPSSKSTSGGTAALGCLVKDYFPEPVTVSWNSGALTSGVHTFPAVIQSSGLYSLSSVVTVPSSSLGTQTYICNVNHKPSNTKVDKRVEPKSCDKTHTCPPCPAPEAAGGPSVFLFPPKPKDTLMISRTPEVTCVVVAVSHEDPEVKFNWYVDGVEVHNAKTKPREEQYGSTYRVVSVLTVLHQDWLNGKEYKCKVSNKALPAPIEKTISKAKGQPREPQVYTLPPSREEMTKNQVSLTCLVKGFYPSDIAVEWESNGQPENNYKTTPPVLDSDGSFFLYSKLTVDKSRWQQGNVFSCSVMHEALHNHYTQKSLSLSPGGGGGSGGGGSSDTGRPFVEMYSEIPEIIHMTEGRELVIPCRVTSPNITVTLKKFPLDTLIPDGKRIIWDSRKGFIISNATYKEIGLLTCEATVNGHLYKTNYLTHRQTNTIIDVVLSPSHGIELSVGEKLVLNCTARTELNVGIDFNWEYPSSKHQHKKLVNRDLKTQSGSEMKKFLSTLTIDGVTRSDQGLYTCAASSGLMTKKNSTFVRVHEK
light: DIQMTQSPSSLSASVGDRVTITCRASQDVSTAVAWYQQKPGKAPKLLIYSASFLYSGVPSRFSGSGSGTDFTLTISSLQPEDFATYYCQQSYATLPTFEQGTKVEIKRTVAAPSVFIFPPSDEQLKSGTASVVCLLNNFYPREAKVQWKVDNALQSGNSQESVTEQDSKDSTYSLSSTLTLSKADYEKHKVYACEVTHQGLSSPVTKSFNRGEC
notes: as for B1
B5: PRO242 (bispecific antibody, IgG1)
chain: SDTGRPFVEMYSEIPEIIHMTEGRELVIPCRVTSPNITVTLKKFPLDTLIPDGKRIIWDSRKGFIISNATYKEIGLLTCEATVNGHLYKTNYLTHRQTNTIIDVVLSPSHGIELSVGEKLVLNCTARTELNVGIDFNWEYPSSKHQHKKLVNRDLKTQSGSEMKKFLSTLTIDGVTRSDQGLYTCAASSGLMTKKNSTFVRVHEKGGGGSDKTHTCPPCPAPEAAGGPSVFLFPPKPKDTLMISRTPEVTCVVVAVSHEDPEVKFNWYVDGVEVHNAKTKPREEQYGSTYRVVSVLTVLHQDWLNGKEYKCKVSNKALPAPIEKTISKAKGQPREPQVYTLPPSREEMTKNQVSLTCLVKGFYPSDIAVEWESNGQPENNYKTTPPVLDSDGSFFLYSKLTVDKSRWQQGNVFSCSVMHEALHNHYTQKSLSLSPGGGGGSGGGGSGGGGSEVQLVESGGGLVQPGGSLRLSCAASGFSFTSSSVSWVRQAPGKGLEWVGLIYPYNGFNYYADSVKGRFTISADTSKNTAYLQMNSLRAEDTAVYYCARNALYGSGGYYAMDYWGQGTLVTVSSGGGGSGGGGSGGGGSGGGGSDIQMTQSPSSLSASVGDRVTITCRASQDVSTAVAWYQQKPGKAPKLLIYSASFLYSGVPSRFSGSGSGTDFTLTISSLQPEDFATYYCQQSYATLPTFEQGTKVEIK
notes: as for B1

Molecular target: T1, human VEGF165 protein (human, UniProt P15692-4 27-191)
T1 construct: Immobilised on the ELISA plate
Assay: ELISA, human VEGF165 immobilised on plate
From the text: Next, the anti-human immunoglobulin G antibody and the anti-horseradish peroxidase (HRP) antibody were sequentially allowed to bind.

T1 sequence (P15692 other isoform, or with tags, fused parts or gaps limits assumed): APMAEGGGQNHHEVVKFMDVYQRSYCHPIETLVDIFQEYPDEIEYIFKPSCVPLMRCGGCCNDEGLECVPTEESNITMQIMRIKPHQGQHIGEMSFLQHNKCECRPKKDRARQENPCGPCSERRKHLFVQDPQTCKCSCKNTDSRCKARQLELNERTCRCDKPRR

| Binder | binding result |
| --- | --- |
| B1 | binds |
| B2 | binds |
| B3 | binds |
| B4 | binds |
| B5 | binds |
